Reference: the Human Domainome abundance scans (Beltran et al. 2025)
± gives the uncertainty stated by the source.

B1: Bromodomain adjacent to zinc finger domain protein 2B, residues 1927 to 1982; numbered along this chain, Q9UIF8 (parent)
chain: KSIMKVYCQICRKGDNEELLLLCDGCDKGCHTYCHRPKITTIPDGDWFCPACIAKA

Variants of: B1
Assay: abundance fitness (aPCA) (normalised: wild type 0, dead -1); higher = more abundant; growth selection in yeast, the domain comes from the species named
Conditions: Homo sapiens

Abundance fitness: each site, then its substitutions
C30: T 0.039 ± 0.096; V -0.071 ± 0.074; W 0.031 ± 0.075; Y 0.004 ± 0.11
H31: A -0.683 ± 0.083; C -0.483 ± 0.13; D -0.386 ± 0.12; E -0.753 ± 0.12; F -0.954 ± 0.2; G -0.471 ± 0.063; I -0.817 ± 0.16; K -0.5 ± 0.13; L -0.926 ± 0.1; M -0.71 ± 0.11; N -0.553 ± 0.14; P -0.556 ± 0.1; Q -0.622 ± 0.11; R -0.601 ± 0.069; S -0.639 ± 0.088; T -0.446 ± 0.1; V -0.624 ± 0.073; W -0.856 ± 0.1; Y -0.573 ± 0.1
T32: A -0.065 ± 0.075; C -0.333 ± 0.11; E -0.27 ± 0.097; F -0.235 ± 0.14; G -0.118 ± 0.064; H -0.111 ± 0.16; I 0.004 ± 0.11; K -0.156 ± 0.1; L 0.026 ± 0.079; M -0.048 ± 0.1; N -0.133 ± 0.2; P -0.271 ± 0.11; Q -0.131 ± 0.12; R -0.078 ± 0.071; S 0.052 ± 0.091; V -0.053 ± 0.079; W -0.141 ± 0.096; Y -0.019 ± 0.17
Y33: A -0.105 ± 0.074; C -0.289 ± 0.13; D -0.123 ± 0.11; E -0.058 ± 0.09; F -0.154 ± 0.17; H -0.111 ± 0.14; I -0.223 ± 0.18; K -0.123 ± 0.1; L -0.202 ± 0.07; N -0.213 ± 0.16; P -0.323 ± 0.09; R -0.053 ± 0.069; S -0.086 ± 0.077; T 0.089 ± 0.1; V -0.178 ± 0.071; W -0.178 ± 0.094
C34: A -0.688 ± 0.088; D -0.63 ± 0.14; F -0.766 ± 0.12; G -0.495 ± 0.07; H -0.216 ± 0.16; I -0.961 ± 0.19; K -0.561 ± 0.11; L -0.763 ± 0.079; M -0.672 ± 0.095; N -0.818 ± 0.19; P -0.675 ± 0.11; Q -0.731 ± 0.12; S -0.584 ± 0.08; T -0.694 ± 0.1; V -0.771 ± 0.071; W -0.895 ± 0.11; Y -0.659 ± 0.15
H35: A 0.021 ± 0.075; C -0.084 ± 0.14; D 0.001 ± 0.14; E -0.169 ± 0.093; F -0.109 ± 0.11; G -0.102 ± 0.075; I -0.019 ± 0.19; K 0.024 ± 0.12; L 0.027 ± 0.065; M 0.002 ± 0.11; N -0.09 ± 0.15; P -0.093 ± 0.11; Q -0.09 ± 0.097; R -0.137 ± 0.073; S -0.105 ± 0.077; V -0.052 ± 0.083; W -0.18 ± 0.091; Y -0.201 ± 0.1
R36: A -0.007 ± 0.074; C 0.008 ± 0.12; D -0.03 ± 0.11; E 0.058 ± 0.1; F -0.154 ± 0.12; G -0.015 ± 0.068; H 0.021 ± 0.14; I -0.175 ± 0.14; K -0.168 ± 0.13; L 0.06 ± 0.081; P -0.078 ± 0.1; Q -0.1 ± 0.12; S 0.065 ± 0.074; T 0.078 ± 0.11; V 0.053 ± 0.07; W -0.004 ± 0.12; Y -0.252 ± 0.12
P37: A -0.056 ± 0.1; C -0.32 ± 0.11; D -0.195 ± 0.16; E 0.026 ± 0.14; F -0.333 ± 0.12; G -0.161 ± 0.098; H -0.188 ± 0.11; L -0.177 ± 0.069; M -0.227 ± 0.094; N -0.166 ± 0.13; Q -0.239 ± 0.1; R -0.227 ± 0.071; S -0.202 ± 0.081; T -0.148 ± 0.099; V -0.228 ± 0.1; W -0.31 ± 0.1; Y -0.602 ± 0.15
K38: C -0.128 ± 0.1; E -0.186 ± 0.11; F -0.147 ± 0.16; H -0.153 ± 0.1; I -0.071 ± 0.12; L 0.015 ± 0.077; M -0.09 ± 0.11; N -0.139 ± 0.12; P -0.122 ± 0.092; Q -0.219 ± 0.13; R -0.122 ± 0.074; S -0.059 ± 0.072; T -0.016 ± 0.092; V -0.104 ± 0.088; W -0.216 ± 0.098; Y -0.148 ± 0.12
I39: A -0.068 ± 0.084; C 0.011 ± 0.12; D -0.194 ± 0.13; E 0.04 ± 0.099; F -0.164 ± 0.15; G -0.1 ± 0.063; H -0.189 ± 0.18; K -0.111 ± 0.1; M 0.039 ± 0.1; N 0.002 ± 0.18; P -0.266 ± 0.12; Q -0.059 ± 0.095; S -0.087 ± 0.081; T -0.124 ± 0.12; V -0.031 ± 0.08; W -0.137 ± 0.095
T40: A -0.164 ± 0.1; D -0.095 ± 0.21; E -0.026 ± 0.12; F -0.015 ± 0.12; G -0.106 ± 0.079; H -0.128 ± 0.14; I -0.123 ± 0.13; K 0.072 ± 0.15; L -0.049 ± 0.083; M -0.024 ± 0.14; N -0.232 ± 0.14; P 0.031 ± 0.13; R -0.043 ± 0.069; S -0.131 ± 0.079; V -0.056 ± 0.098; W -0.082 ± 0.11; Y -0.11 ± 0.16
T41: A -0.112 ± 0.078; C -0.09 ± 0.14; D -0.085 ± 0.11; E 0.023 ± 0.11; G 0.001 ± 0.061; H -0.041 ± 0.16; K 0.085 ± 0.24; L -0.187 ± 0.1; M -0.108 ± 0.12; N -0.059 ± 0.16; P 0.074 ± 0.16; Q -0.018 ± 0.17; R -0.048 ± 0.072; S -0.091 ± 0.094; V -0.057 ± 0.074; W -0.167 ± 0.11; Y -0.217 ± 0.16
I42: A 0.042 ± 0.1; D -0.209 ± 0.24; E 0.069 ± 0.14; F -0.007 ± 0.2; G -0.048 ± 0.077; H -0.235 ± 0.13; K 0.009 ± 0.1; L -0.015 ± 0.08; M 0.049 ± 0.15; P -0.043 ± 0.11; Q -0.201 ± 0.11; R -0.054 ± 0.073; S -0.065 ± 0.085; T 0.011 ± 0.1; V -0.039 ± 0.099; Y -0.093 ± 0.18
P43: A -0.006 ± 0.083; C -0.095 ± 0.14; D -0.071 ± 0.2; E -0.041 ± 0.11; F -0.451 ± 0.17; G -0.016 ± 0.079; H -0.217 ± 0.14; I 0.092 ± 0.27; K -0.08 ± 0.15; L -0.163 ± 0.1; M -0.269 ± 0.17; N -0.245 ± 0.23; Q 0.024 ± 0.12; R -0.083 ± 0.081; S 0.053 ± 0.1; T -0.003 ± 0.13; V -0.127 ± 0.084; W -0.188 ± 0.14; Y -0.263 ± 0.19
D44: A -0.11 ± 0.1; E -0.206 ± 0.1; G -0.017 ± 0.077; H -0.022 ± 0.17; I -0.018 ± 0.28; K -0.235 ± 0.13; L -0.085 ± 0.087; M -0.083 ± 0.12; N 0.111 ± 0.19; P 0.048 ± 0.11; Q -0.282 ± 0.24; R -0.086 ± 0.082; S -0.031 ± 0.086; T -0.078 ± 0.12; V -0.105 ± 0.1; W -0.205 ± 0.12; Y -0.222 ± 0.2
G45: A -0.154 ± 0.2; C -0.235 ± 0.4; D -0.068 ± 0.13; K -0.425 ± 0.41; M -0.371 ± 0.47; R 0.023 ± 0.17; S -0.005 ± 0.13; V -0.139 ± 0.23; W -0.728 ± 0.32
D46: A -0.146 ± 0.089; C -0.06 ± 0.14; E 0.028 ± 0.11; F -0.334 ± 0.15; G -0.031 ± 0.083; H -0.122 ± 0.12; I -0.305 ± 0.16; K 0.033 ± 0.13; L -0.233 ± 0.099; M -0.218 ± 0.13; N -0.009 ± 0.12; P 0.058 ± 0.12; Q 0.117 ± 0.14; S -0.006 ± 0.096; T -0.094 ± 0.096; V -0.046 ± 0.088; W -0.582 ± 0.16; Y -0.375 ± 0.17
W47: A -0.168 ± 0.087; C -0.287 ± 0.12; D -0.15 ± 0.11; E -0.338 ± 0.092; F -0.345 ± 0.17; G -0.289 ± 0.072; H -0.169 ± 0.22; I -0.092 ± 0.19; K -0.127 ± 0.11; L -0.312 ± 0.083; N -0.186 ± 0.17; P -0.165 ± 0.11; Q -0.203 ± 0.12; R -0.115 ± 0.073; T -0.213 ± 0.1; V -0.338 ± 0.091; Y -0.165 ± 0.19
F48: A 0.021 ± 0.089; C 0.037 ± 0.12; E -0.028 ± 0.1; G -0.06 ± 0.069; H -0.029 ± 0.15; I 0.07 ± 0.2; K 0.085 ± 0.14; L -0.064 ± 0.097; M -0.01 ± 0.14; N 0.192 ± 0.15; P -0.132 ± 0.12; Q -0.04 ± 0.12; R 0 ± 0.069; S 0.037 ± 0.08; T 0.008 ± 0.12; V 0.044 ± 0.089; W -0.07 ± 0.098; Y 0.039 ± 0.16
C49: A -0.82 ± 0.16; D -0.244 ± 0.16; F -1.04 ± 0.28; G -0.788 ± 0.066; H -0.333 ± 0.21; I -0.859 ± 0.22; K -0.83 ± 0.14; L -1.04 ± 0.13; M -0.859 ± 0.17; N -0.816 ± 0.24; P -0.993 ± 0.16; Q -0.959 ± 0.16; R -0.822 ± 0.073; S -0.838 ± 0.092; V -1.03 ± 0.13; W -0.932 ± 0.1; Y -1.11 ± 0.14
P50: A -0.074 ± 0.48; G -0.235 ± 0.34; L -0.71 ± 0.4; R 0.183 ± 0.35
A51: C -0.124 ± 0.12; D 0.026 ± 0.12; E 0.028 ± 0.11; F -0.385 ± 0.22; G 0.033 ± 0.069; H -0.214 ± 0.16; I -0.14 ± 0.2
